This note sets out measurements from publication PMC10454913, “Neurohypophysial and paracrine vasopressinergic signaling regulates aquaporin trafficking to hydrate marine teleost oocytes” (Frontiers in Endocrinology, 2023).

One data set has as its target seabream Oxtrb (Sparus aurata, UniProt R9WVY7). Nature of the data set: Activation of seabream Oxtrb in transfected HEK293T cells (pCRE-luc / pSRE-luc reporters, Fluo-4 AM Ca2+). In kind it is cell-based, gilthead seabream (Sparus aurata).
Data set [1] deals with X. laevis oocytes expressing the seabream Oxtrb and Aqp1aa. The settings on record: not told.
For data set [2], the target named is seabream arginine vasopressin receptor Avpr1aa (gilthead seabream (Sparus aurata)).
Data set [3] has the same target. The source holds these as a separate data set.
Data set [4] deals with seabream oxytocin receptor Oxtrb (gilthead seabream (Sparus aurata)).

Bridge positions count the residues as written; N and C are the ends. Ends that are not written are not given here.

For orientation: EC50 means the concentration needed to bring the measured effect to its halfway point. Regarding “CYISNCPIG-NH2 (ends and bridges not checked) [Oxt]”, the “pCRE-mediated luciferase activity (cAMP)” value in the data set with seabream Oxtrb (HEK293T cells expressing Oxtrb) was “did not induce measurable increases”. Besides, the “pSRE-induced luciferase activity (PKC activation)” value with seabream Oxtrb (HEK293T cells expressing Oxtrb, 10^-12 to 10^-5 M) is given as “concentration-dependent increase”. Moreover, the “intracellular Ca2+ concentration ([Ca2+]i)” value in the data set with seabream Oxtrb (HEK293T cells expressing Oxtrb, Fluo-4 AM) is reported as “concentration-dependent increase”. Further, the concentration for a half-maximal effect (EC50) with seabream Oxtrb (Oxt on Oxtrb, HEK293T, read-out: approximate EC50 on cognate receptor) is about 10 nM. The “oocyte permeability (P f) and channel accumulation in the plasma membrane” value in data set [1] was “reduction of oocyte permeability”.

As to CYIQNCPRG-NH2 (disulfide 1-6; ends not checked) [arginine vasopressin (Avp, formerly vasotocin), synthetic nonapeptide], in data set [2], the EC50 of receptor activation (pSRE-luciferase activity and [Ca2+]i) in HEK293T cells expressing Avpr1aa, Avp 10^-12 to 10^-5 M was determined as 1e-08 M. Further, in data set [3] (scale: fold), the EC50 of PKC (pSRE-luciferase) activation and [Ca2+]i increase in HEK293T cells, Avp on Avpr1aa against Oxt on Oxtrb worked out at 10.

Molecule CYISNCPIG-NH2 (disulfide 1-6; ends not checked) [oxytocin (Oxt, formerly isotocin), synthetic nonapeptide] registered an EC50 of receptor activation (pSRE-luciferase activity and [Ca2+]i) in HEK293T cells expressing Oxtrb, Oxt 10^-12 to 10^-5 M in data set [4] of 1e-08 M. This molecule yielded an EC50 of cross-activation of Avpr1aa by Oxt in HEK293T cells (Figure 4D), against that of Avp (fold (EC50 of Oxt over EC50 of Avp)) in data set [3] of 10.
